The source of these data is publication PMC2744139.

The target of this experiment is Cdc13 amino-terminus through the DBD (N) (S. cerevisiae). As to the kind of experiment: fluorescence polarisation. In general terms: In fluorescence polarisation assays a small probe gives low polarisation when free and higher when bound to something large.

Take “Hsp82 (yeast Hsp90 molecular chaperone) (from UniProt P02829 1-709) (natural protein)”: the Kd (usually the equilibrium constant for the complex coming apart) stood at 35 nM.
